From a protein production outcome set (Wang et al. 2014)

Assay: label from the status in PepcDB records

Row | Sequence | protein production
1 | LNSSYVNGNTAGNLYNAGLFCESDGEVFFSNTNDNGRLYAMNIDGSNIHKLSNDTAMYINADKNYVYYVRNNNQKITSQTFFSYDRNSLCRIKRNGHGSTVLDPDPCIYASLIGNYIYYLHYDTQTATSLYRIRIDGEEKKKIKNHYLFTCNTSDRYFYYNNPKNGQLYRYDTASQSEALFYDCNCYKPVVLDDTNVYYMDVNRDNAIVHVNINNPNPVVLTEANIEHYNVYGSLIFYQRGGDNPALCVVKNDGTGFKELAKGEFCNINVTSQYVYFTDFVSNKEYCTSTQNPDTIKALQP | not failed
2 | LQCEICGFTCRQKASLNWHQRKHAETVAALRFPCEFCGKRFEKPDSVAAHRSKSHPALLLAPQES | not failed
3 | LQESEARFQAFMNNSPSASWITDDHGRMLYLSQTYVRTFQLPFDKVEDVTGKTVFELYTPEVAQPFLDNIHRVAQTQQILETIEKAPRLDGTLGDFLVYKFPLPATTGELFIGGVAVDISDKIRAEQALQKLNQELEAR | not failed
4 | LQSKLSLPKIPNVIECFDISHLSGTATVGSMVQFRGGRPDKHNYRRFKIESVEGIDDFASIAEVVRRRYSRLLEDKHEMPDLIIIDGGKGQLSSAFQELRKLRVKVPIISIAKREEEIYVPGLKSPLPIKKDEKASLFVQEIRDEAHRFAINYNRLLRQKALIQK | failed
5 | LRGFVPSSVWLERGVFPPSNEEVIKLGLSPTSMVARLKRQRLADGVVMAIEMSTMPVAYLPDPQAVGTSLYAHLDATGHSVVRALQHIRAVNASGDVAQLAGIRPGEAMLLITRIGFNADNVAIELTDTYCRNDYYDFVAELKR | not failed
6 | LRSNRVTQHPPLQLSLPVHLPDDETFTSYYPAAGNDELIGALKSAASGDGVQAIYLWGPVKSGRTHLIHAACARANELERRSFYIPLGIHASISTALLEGLEQFDLICIDDVDAVAGHPLWEEAIFDLYNRVAEQKRGSLIVSASASPMEAGFVLPDLVSRMHWGLTYQLQPMMDDEKLAALQRRAAMRGLQLPEDVGRFLLNRMARDLRTLFDVLDRLDKASMVHQRKLTIPFVKEMLRL | not failed
7 | LRSPRLYTHRLILRPWLVQDRARFAELNADPLVMEFFPSCLDRAQSDALLRRIDAHFAEHGFGWWALQVKGGDPFIGYVGLEVVDFDAPFVPAVAIGWRLAAEHWAEGFAHEAAEAALSYAFDTLGLDQVVAFTVPANENSLGLMERLGMHRDPTDDFEHPDLPPGHRLRHHVLYRLTREDWLRR | not failed
8 | LSDPNLVLFYVKNPAKSEEFYKNLLDTQPIESSPTFAMFVMKTGLRLGLWAQEEIEPKAHQTGGGMELSFQVNSNEMVDEIHRQWSDKEISIIQPPTQMDFGYTFVGVDPDEHRLRIFCLKRT | not failed
9 | LTLDLAPVTPKDAPLLHRVFHLSPSYFALIGMELPTLEDVVRDLQTLEVDPRRRAFLLFLGQEPVGYLDAKLGYPEAEDATLSLLLIREDHQGRGLGRQALERFAAGLDGVRRLYAVVYGHNPKAKAFFQAQGFRYVK | not failed
10 | LTRWGAFRNITLPLALPGLAAAAMFTFVMSWNEVFVASILTLKNRTLPAQILSIVAGAAGGAAPAYYKFAAAFIMTLPAMLFIFFARRYLVTMWGITL | failed
11 | LVVSIRVQGDKRLSSLRRCCALTRYDAHKMSHDAFTVIKNCNTSGIQTEWSPPLTMLFLCATKFSASAP | failed
12 | LYLAGIGQYAALLEAGFARARSAEETVRLLVTSYIDWVVANPDWARFILHSRGRVEAGELGERLRADNQAHFARIHAALAGYRAEGLFREMPDDCFASVVIGPAHDLARQWLAGRTRVALADCRELLAQVAWDSVRAA | not failed
13 | MAAASPLRDCQAWKDARLPLSTTSNEACKLFDATLTQYVKWTNDKSLGGIEGCLSKLKAADPTFVMGHAMATGLVLIGTGSSVKLDKELDLAVKTMVEISRTQPLTRREQLHVSAVETFANGNFPKACELWEQILQDHPTDMLALKFSHDAYFYLGYQEQMRDSVARIYPFWTPDIPLSSYVKGIYSFGLMETNFYDQAEKLAKEALSINPTDAWSVHTVAHIHEMKAEIKDGLEFMQHSETFWKDSDMLACHNYWHWALYLIEKGEYEAALTIYDTHILPSLQANDAMLDVVDSCSMLYRLQMEGVSVGQRWQDVLPVARKHSRDHILLFNDAHFLMASLGAHDPQTTQELLTTLRDASESPGENCQHLLARDVGLPLCQALVEAEDGNPDRVLELLLPIRYRIVQLGGSNAQRDVFNQLLIHAALNCTSSVHKNVARSLLMERDALKPNSPLTERLIRKAATVHLMQ | failed
14 | MAACPELVDATFAILASGWHSTAVEVGGRWVFKFPRGAEAEAALLREAAVLRLVRPAVSLPVPAPQVFAGPPLFSRHEKLPGGYLLGEDYRRLDEPARQAVGDALGRFYAELHRLPPARMRAVGALPVRPWESPAAMRRRALPLLPAAWRERAERLVREYAKLPADPLGSIFGFFDGHGWNMAFDSEAGRLNGVYDFADAGIGPLHQEFIYSAFIDADLTERIVAAYERFSGRRLERRRIALLTAAHRLSELAELADEPRHLPDMLAGALDGLALAEAQGLA | failed
15 | MAAILISLIGKYGMNGIFIATFMAGIFLLLAGIFRLGNLISLIPSPVITGFTSGIAIIIASGQIKNFFGIEHFTGSFFDLMKFISGLHIDYPSTIIGLLTILLMIFYPKSWGKKFPASLLAILLSTLAVLALKLDIPLVGKIPTTLIPQAHLRLTELNPQDMKTLLIPAISITVLGMTESLLCGASAGRATNHPMDNNQELVAQGIGNIFIPFFGGIPATAAIARTSVAIKAGAQTRLTGIIHALILLLSMFLFAPFMTHIPLSALAGVLIMTAVRMNEWEAIRFLFKNKLKSGIIEFFVTMIITVIFDLSTAILAGIVVGFLLFIVKISQIEINSSQIEPERISQNHHEVFTDWTVIYISGPLFFLNSSKLKQAIDELPANTNAVLSLRGVPMIDVTSIKLLIDIYSIFHKEERQIVFASMNPKLKESFKRTGLISMVGEEAIYPSVNEFLLDLVDKNK | failed
16 | MAAKKPLFEVIASKIKDSINRDEYKTGMLMPNETALQEIYSSSRTTIRRAVDLLVEEGLVVRKNGVGLYVQPKLTAQNILEMTGVMKNDTNENLKKDIKDFYIRKAGKFYAEIFGMKENELVYSIKFVQKSEHGATLDRLILPLGLYPDLQAKDFQIINIIELVNSGKYKLFELEQELQLILAGNEQIKNMHLNENDPVFKLSSVFYAENDMPIAIQYHYEDAESTKYVVDFN | not failed
17 | MAAKTMDFAGPAVSTGLGGLGPTRVSGAALMATLLFLGAPLLFAGNMLAARMMQGVLPPFTLASARWALAALVLLPFVRRELFGQRRAAPGRWRALVLPAVLGGALSVGPQYWAAHFTSAGNIALVFAMTPLLVALLDRLAGGARLGAPALAGMGLAIAGIATASFQGSLARLLAFQINPGDLLAGLAALAWAGYTVATRRPRAGLSGLALLWGVAAGGALTLAPAAAVEWLVLGVPSLSREAVLGVAFLAIVPSIGAYLAYGRLIGLVGPVVAGTSMYLIPLYALALGAMVLGEALGRYHLAAAALVIGGVALSRWRGAAKVCG | failed
18 | MAAKTMRKAEELVEKAMKGNDASHDAWHVWRVRDLALSIAREEGLSSNSDSMEIVELAALLHDIGDYKYIRDPSEEKLVENFLDDEGIEETKKTKILTIINGMGFKDELAGVALCESLPEFGVVQDADRLDAIGAIGIARCFTFGGSRNRVLHDPEIKPRTELTKEQYIKREEQTTINHFHEKLLKLKKLMKTEAGKRRAEKRHKFMEEYLKEFYEEWDGST | failed
19 | MAALGLGTYGAHVFKPENPSYKQVWQTASLYHLVHTAALVSAPSTKYPNIFGGLLTAGIVAFSGTCYMVALREDRKFSTLAPFGGFAFIAAWATLLF | failed
20 | MAAPLCVKVEFGGGAELLFDGVKKHQVALPGQEEPWDIRNLLVWIKKNLLKERPELFIQGDSVRPGILVLINDADWELLGELDYQLQDQDSILFISTLHGG | not failed
21 | MAARRFTGDELAALLPHAGDAFFLRDAEVDGWRASGGASWRSDHPHLRGHFPGEPIVPGVYLLEAAAQLAGVAIRCGAEDWTPETLGVLAGVRKSYFHRFVRPGERVDYALDVKPAPGSAMYAVSGLGKVDGDKVLTVELTIAGVRRLEHHHHHH | failed
22 | MAASFAFLRDIRPYKTSWRIQVKVFHSWRQYTSMTGETLELVLVDAHGVKIHASVKKDLVSNFVNNLLLNEWRFIETFALNHASGQFRPTGHLYKMTFVTGTQCILLDVMGQVVDIGELETLEAKNKPTIKLDFELRDDTDERMSCTLWGAFAQSVFSACEFADGQMVICVLRFAKIKSYKGVRSFSNSFYASQVHINPDFPEVQAFVSRVPKFHMVTVKQDDDCKQYERKSIRDFLHSMEVRVVCTIYALDTDWSWYYFSCRNCNKKVTHIHAGVNTTSLKSSKPRFWCDVCKNGVTNVQAK | failed
23 | MAASSPDSYISRRPYVTMGLTVAGVLVLVVATQLVEVLFTVFAGILLAVFLAGVTQELTEDTRLPRPLAVALTLIGLGGVLVGLWALAGPDISEQASALATLLPDAAERLASRIRTTVQRYGWMQRYVDPSQLLPPVSSVLGRVTNVFRDTLNLLVNGFIILFIGIYGGAAPQSYLDGVVQLVPPSSRPRARDVLSALGRALRWWLTGRLILMLIVGVLTAVGLKVVGIPSPIALGLLAALFSFVPYLGPVLSVLPALLVASLIGPTEVLYVILVYGAVQLLESYLISPLVQQQAVHIPPATVITAQFIGGVSAGAGGVLLATPFAIVVIVLVQTLYVEDVLGDEVSLLGEH | failed
24 | MAASSSARVAAATAPTASPTSAAPAAPHDGEDNVAADAPYRVLIVEDDRSQALFAQSVLHGAGMHAQVEMTAASVPQAIQDYHPDLILMDLHMPELDGIRLTTLIRQQPGQQLLPIVFLTGDPDPERQFEVLDSGADDFLTKPIRPRHLIAAVSNRIRRARQQALQQAGEQVSVRSNPETGLPTRGHVMDLLADALERKQSGGLFFIEIASALGLRERYGYAAYERLMTQAGHRLASAAQPYPLARLNDNSFLLLAVDMPEASLEQQALEIRQRLSANAFPVREEESVHVRCAIGVAPLGLGFDDTGSALEAVERTALQARLRSDGVQTYLAPSQAEQQEQLRLVEGQLELAYQPIVAVAGGDTAQYQVLLRLRQADGTLLSAGQVIPAAEAAGRIADLDQQVMDHALGLLHLYQHASPPLRLFVSQSPRTLARDAFADWLLKALVERGVAGQSLIVDLRLDDALIHAVTVQQFCAKLMPAGVQFCLSQFEPGDEANALLAQLPLSFVRMANRFADAHGNAAVRDELRGVIDIAHQRGLLIIGQRIEDPQAAAAMWMSGVDFIQGNLVQTVGKELDFDFTSAVL | failed
25 | MAATTGLETLVDQIISVITNDGRNIVGVLKGFDQATNIILDESHERVFSTKEGVQQHVLGLYIIRGDNIGVIGELDEELDASLDFSKLRAHPLKPVVH | failed
26 | MAAWVIWFIIAGILFIAEMLSITFYMLWLGIGAVVGGLIALFAPDALLLQVTVGAIVSLTLTFFTKRISKNFREAKGFTDTVDMLVGKRGIVMQAITNEANGIVKVDGDTWTAIADSSIDAGEKVVVIKRHSTILQVKKESE | failed
27 | MAAYLERCDSVEEDYIDMEVTSFTNLVRKTLSNNYPREFEFQMSHLCPLEIDKTTSPADELFYKGKLLPLHLPPRLQMVQKILEDYTFDDEFYSTPLATGTVTTPVTSNTPFESCTVSPAESCQVSKELNPEDYFLEYSDSLEEDDEKKKSWTTKLRLMKQSSLGTKIKASRAYLRSFFGKTSCSDESSCASSAARVADEDSVLRYSRVKPFGQIKTERPKKQSNGSVSGSHRRSFSVSMRRQAAKSSNNKSSNSLGFRPLQFLKRSTSSSSEIENSIQGAILHCKQSQQQKQKQKQYSTVNEVGFCSLSASRIAARDDQEWAQMFRG | failed
28 | MACFMALVLARFGFGFCMLLAALVLLAAATLLATRLVGWAVRAFALERSQALASGVAIFILVALALWGCHAVGEVLYGAIGATALVGGAPHWLAGNSHVSAAALMGATTAAAMLAGGPAFWRWLRARRAAAAEQPAPRKAAPPKGAKPAARAAKAAAKTQIAPRGQRIPWLGWTAFFLLFIGAAVLAFAYIVAPIEAGASGLRLEHATRARPVYLAGLTLLGGGAFFLLAWLSRRRLPGD | failed
